Assay results taken from paper doi:10.1101/2020.11.17.387225.

Experiments:
[1] = target: EccB5 (Mycobacterium xenopi); assay: cryo-EM structure
[2] = target: EccD5 (Mycobacterium xenopi); assay: cryo-EM structure

Substance: EccB5 (natural protein)
- stoichiometry N [1]: 6

Substance: EccD5 (natural protein)
- stoichiometry N [2]: 2
